Assay results: WO2019186276A2 (dated 2019)
Blank lines part the entries; values can stand above or below the binder they belong to. Where no end group is shown, it is not given here. [ ]: non-standard residue; d: D form. pT = C[C@@H](OP(=O)(O)O)[C@H](N)C(=O)O

B1: monoclonal antibody DC2E2 (antibody, V domains shown)
VH: EVQLQQSGAELVRPGALVKLSCKASGFNIKDYYMHWVRQRPDQGLEWIGWLDPENDHTIYDPRFQDRANLTADTSSNTAYLQLSSLTSEDTAVYYCSYYKYDDYWGQGTTLTVS
VL: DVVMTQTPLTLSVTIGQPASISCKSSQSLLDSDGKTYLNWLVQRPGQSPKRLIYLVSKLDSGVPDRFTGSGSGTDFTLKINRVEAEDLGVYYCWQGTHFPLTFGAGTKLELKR
notes: also called DC2E2 mAb; hybridoma ATCC PTA-124991
B2: monoclonal antibody DC2E7 (antibody, V domains shown)
VH: DVQLVESGGGLVQPGGSRKLSCAASGFTFSSFGMHWVRQAPEKGLEWVAYISGDSNTIYYADTVKGRFTISRDNPKNTLFLQMTSLRSEDTAIYYCARTLAYWGQGTLVTVS
VL: DIQMTQSSSSFSVSLGDRVTITCKASEDIYNRLAWYQQTPGNAPSLLISGASGLETGVPSRFSGSGSGRDYTLSITSLQTEDVATYYCLQYWSIPWTFGGGTKLEIKR
notes: also called hybridoma ATCC PTA-124992

Columns and labels:
[1] = target: B2; test: competition ELISA, peptide in solution with DC2E7, PHF-tau coated plate
[2] = target: T1, in vitro phosphorylated tau 2N4R (human, UniProt P10636 1-758, in vitro phosphorylated with rat brain kinase extract; sites not determined); test: immunoblot
T1 construct: also called phosphorylated 2N4R; 2N4R in vitro phosphorylated

[3] = target: in vitro phosphorylated tau151-391 (human, UniProt P10636 468-708, in vitro phosphorylated with rat brain kinase extract; sites not determined); test: immunoblot
in vitro phosphorylated tau151-391, sequence (P10636 468-708 I625L): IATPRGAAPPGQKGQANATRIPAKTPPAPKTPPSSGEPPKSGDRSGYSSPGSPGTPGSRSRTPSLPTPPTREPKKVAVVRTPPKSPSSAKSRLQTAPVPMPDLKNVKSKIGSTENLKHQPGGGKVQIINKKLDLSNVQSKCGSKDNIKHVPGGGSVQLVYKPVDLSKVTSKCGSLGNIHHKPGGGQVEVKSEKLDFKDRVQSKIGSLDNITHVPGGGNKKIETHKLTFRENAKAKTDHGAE

[4] = target: T2, recombinant human full-length tau 2N4R (human, UniProt P10636 1-758); test: immunoblot
T2 construct: Expressed in E. coli, unphosphorylated; also called tau441; physiological tau (2N4R)

tau 1-242 = target: T3, tau 1-242 (human, UniProt P10636 1-559); test: ELISA screen of hybridoma supernatants on coated tau 1-242
T3 construct: Deletion mutant numbered on tau 2N4R
T3 sequence (P10636 other isoform, or with tags, fused parts or gaps): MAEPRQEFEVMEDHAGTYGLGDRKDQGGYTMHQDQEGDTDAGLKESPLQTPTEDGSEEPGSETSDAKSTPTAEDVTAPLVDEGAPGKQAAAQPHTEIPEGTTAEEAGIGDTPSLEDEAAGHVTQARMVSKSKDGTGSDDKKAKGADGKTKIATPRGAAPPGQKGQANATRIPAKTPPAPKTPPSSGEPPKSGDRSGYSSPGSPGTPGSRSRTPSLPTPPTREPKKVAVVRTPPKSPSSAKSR

[5] = target: recombinant human tau isoform 2N3R (human, UniProt P10636-5 1-410); test: direct ELISA, coated recombinant tau, hybridoma supernatant
recombinant human tau isoform 2N3R, sequence (P10636 other isoform, or with tags, fused parts or gaps limits assumed): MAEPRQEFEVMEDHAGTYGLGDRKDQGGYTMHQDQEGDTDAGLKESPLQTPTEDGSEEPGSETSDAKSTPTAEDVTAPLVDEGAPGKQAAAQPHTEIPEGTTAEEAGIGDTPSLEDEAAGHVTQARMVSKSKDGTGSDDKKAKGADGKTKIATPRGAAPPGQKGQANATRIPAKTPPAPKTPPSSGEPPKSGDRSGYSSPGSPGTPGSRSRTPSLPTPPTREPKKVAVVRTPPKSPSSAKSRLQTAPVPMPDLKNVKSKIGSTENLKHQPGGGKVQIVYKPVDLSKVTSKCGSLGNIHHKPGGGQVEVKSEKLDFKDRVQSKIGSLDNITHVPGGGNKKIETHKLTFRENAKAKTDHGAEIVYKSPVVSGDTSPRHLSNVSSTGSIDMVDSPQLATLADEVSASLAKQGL

[6] = target: recombinant human tau isoform 0N4R (human, UniProt P10636-6 1-383); test: as above
[7] = target: recombinant human tau isoform 1N3R (human, UniProt P10636-4 1-381); test: as above
recombinant human tau isoform 1N3R, sequence (P10636 other isoform, or with tags, fused parts or gaps limits assumed): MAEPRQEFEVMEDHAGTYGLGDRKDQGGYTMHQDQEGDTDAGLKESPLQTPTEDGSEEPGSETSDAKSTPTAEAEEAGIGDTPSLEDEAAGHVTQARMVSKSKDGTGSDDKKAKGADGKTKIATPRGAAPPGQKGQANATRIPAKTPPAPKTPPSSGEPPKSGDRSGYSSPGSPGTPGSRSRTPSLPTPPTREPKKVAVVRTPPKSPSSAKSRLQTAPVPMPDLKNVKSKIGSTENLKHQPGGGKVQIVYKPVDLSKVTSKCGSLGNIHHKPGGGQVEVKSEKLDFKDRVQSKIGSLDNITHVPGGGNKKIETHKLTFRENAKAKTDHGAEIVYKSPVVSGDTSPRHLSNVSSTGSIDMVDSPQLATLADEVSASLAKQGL

[8] = target: recombinant human tau isoform 0N3R (human, UniProt P10636-2 1-352); test: as above
recombinant human tau isoform 0N3R, sequence (P10636 other isoform, or with tags, fused parts or gaps limits assumed): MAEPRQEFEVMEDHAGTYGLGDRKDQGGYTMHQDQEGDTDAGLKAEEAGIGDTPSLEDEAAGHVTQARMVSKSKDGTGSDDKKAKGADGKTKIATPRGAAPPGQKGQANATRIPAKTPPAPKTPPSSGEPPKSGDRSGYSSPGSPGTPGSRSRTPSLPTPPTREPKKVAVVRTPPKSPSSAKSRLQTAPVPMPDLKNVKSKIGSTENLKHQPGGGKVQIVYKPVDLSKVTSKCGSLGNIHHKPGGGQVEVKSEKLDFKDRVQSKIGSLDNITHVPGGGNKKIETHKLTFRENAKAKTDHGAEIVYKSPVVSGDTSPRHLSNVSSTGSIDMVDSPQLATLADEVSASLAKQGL

tau 31-441 = tau 31-441 (human, UniProt P10636 31-758); test: as above
tau 31-441, sequence (P10636 other isoform, or with tags, fused parts or gaps): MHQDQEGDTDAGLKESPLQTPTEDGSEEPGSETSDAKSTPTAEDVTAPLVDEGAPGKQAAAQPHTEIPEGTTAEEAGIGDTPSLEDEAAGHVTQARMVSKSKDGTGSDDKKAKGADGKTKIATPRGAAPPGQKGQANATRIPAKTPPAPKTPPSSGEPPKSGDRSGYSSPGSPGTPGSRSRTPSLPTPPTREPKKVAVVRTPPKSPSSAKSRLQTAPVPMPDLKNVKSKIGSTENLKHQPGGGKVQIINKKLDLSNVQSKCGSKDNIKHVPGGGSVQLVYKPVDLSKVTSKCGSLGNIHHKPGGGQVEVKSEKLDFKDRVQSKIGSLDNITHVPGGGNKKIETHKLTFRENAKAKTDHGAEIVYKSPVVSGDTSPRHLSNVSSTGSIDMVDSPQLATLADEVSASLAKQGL

tau 99-441 = tau 99-441 (human, UniProt P10636 99-758); test: as above
tau 99-441, sequence (P10636 other isoform, or with tags, fused parts or gaps): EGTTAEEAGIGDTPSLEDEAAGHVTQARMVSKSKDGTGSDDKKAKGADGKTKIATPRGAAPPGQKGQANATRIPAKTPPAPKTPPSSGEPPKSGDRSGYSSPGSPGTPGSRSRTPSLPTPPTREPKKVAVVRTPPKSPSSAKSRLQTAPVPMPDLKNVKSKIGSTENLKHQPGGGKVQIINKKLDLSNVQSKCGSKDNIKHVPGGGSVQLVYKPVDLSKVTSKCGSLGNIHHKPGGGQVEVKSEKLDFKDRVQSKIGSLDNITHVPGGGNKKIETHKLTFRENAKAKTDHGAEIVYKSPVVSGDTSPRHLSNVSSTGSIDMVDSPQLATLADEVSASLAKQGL

tau 1-226 = tau 1-226 (human, UniProt P10636 1-543); test: as above
tau 1-226, sequence (P10636 other isoform, or with tags, fused parts or gaps): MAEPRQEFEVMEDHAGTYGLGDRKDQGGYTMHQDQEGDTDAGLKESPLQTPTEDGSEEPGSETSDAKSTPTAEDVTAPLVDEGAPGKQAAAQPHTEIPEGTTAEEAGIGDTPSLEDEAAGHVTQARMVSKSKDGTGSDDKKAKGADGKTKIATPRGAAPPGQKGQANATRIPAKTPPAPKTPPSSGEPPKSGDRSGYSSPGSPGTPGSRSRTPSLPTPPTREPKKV

tau151-391 = tau151-391 (human, UniProt P10636 468-708); test: as above
tau151-391, sequence (P10636 468-708 I625L): as the sequence (P10636 468-708 I625L) above

tau 127-441 = tau 127-441 (human, UniProt P10636 378-758); test: as above
tau 127-441, sequence (P10636 other isoform, or with tags, fused parts or gaps): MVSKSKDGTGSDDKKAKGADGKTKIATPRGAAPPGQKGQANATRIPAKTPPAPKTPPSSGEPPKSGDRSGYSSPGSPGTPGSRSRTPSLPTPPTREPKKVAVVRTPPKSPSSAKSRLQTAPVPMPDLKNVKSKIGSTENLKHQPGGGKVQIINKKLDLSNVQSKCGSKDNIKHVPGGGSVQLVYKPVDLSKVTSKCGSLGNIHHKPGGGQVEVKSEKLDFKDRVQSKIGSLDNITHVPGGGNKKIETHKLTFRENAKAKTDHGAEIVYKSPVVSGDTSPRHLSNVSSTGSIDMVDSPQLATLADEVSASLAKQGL

[9] = target: recombinant human tau isoform 1N4R (human, UniProt P10636-7 1-412); test: as above
recombinant human tau isoform 1N4R, sequence (P10636 other isoform, or with tags, fused parts or gaps limits assumed): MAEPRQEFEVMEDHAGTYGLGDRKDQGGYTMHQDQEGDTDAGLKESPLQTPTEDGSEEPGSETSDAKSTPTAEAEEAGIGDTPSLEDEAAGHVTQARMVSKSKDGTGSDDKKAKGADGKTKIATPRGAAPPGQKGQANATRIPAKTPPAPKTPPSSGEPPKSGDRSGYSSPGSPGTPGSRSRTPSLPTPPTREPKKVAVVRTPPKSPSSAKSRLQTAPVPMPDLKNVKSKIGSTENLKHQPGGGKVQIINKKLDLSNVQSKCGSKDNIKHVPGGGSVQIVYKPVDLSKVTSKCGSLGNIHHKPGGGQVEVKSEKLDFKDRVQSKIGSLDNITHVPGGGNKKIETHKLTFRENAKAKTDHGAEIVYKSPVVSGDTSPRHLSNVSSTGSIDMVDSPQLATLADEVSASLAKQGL

tau 1-136 = tau 1-136 (human, UniProt P10636 1-387); test: direct ELISA, coated recombinant tau (5 ug/ml), hybridoma supernatant
tau 1-136, sequence (P10636 other isoform, or with tags, fused parts or gaps): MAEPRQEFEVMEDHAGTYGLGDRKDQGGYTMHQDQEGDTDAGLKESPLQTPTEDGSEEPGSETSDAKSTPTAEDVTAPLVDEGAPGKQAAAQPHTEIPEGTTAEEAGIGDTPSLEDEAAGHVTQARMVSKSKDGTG

tau 221-441 = target: T4, tau 221-441 (human, UniProt P10636 538-758); test: as above
T4 construct: Unphosphorylated form used in the DC2E2 ELISA
T4 sequence (P10636 538-758 I625L): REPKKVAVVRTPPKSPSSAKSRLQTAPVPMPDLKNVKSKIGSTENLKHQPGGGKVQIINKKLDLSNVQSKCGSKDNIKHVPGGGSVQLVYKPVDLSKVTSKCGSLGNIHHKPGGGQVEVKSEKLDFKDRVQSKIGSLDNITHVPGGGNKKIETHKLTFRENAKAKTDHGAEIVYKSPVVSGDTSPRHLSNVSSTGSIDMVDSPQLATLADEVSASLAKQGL

tau 2N4R(A134-168) = target: T5, tau 2N4R(A134-168) (human, UniProt P10636 1-758); test: as above
T5 construct: The printed 'A' is read as the delta sign (deletion of 134-168); also called tau 2N4R with residues 134-168 deleted

[10] = target: B1; test: competition ELISA, coated tau 1-242, peptide in solution
[11] = target: phosphorylated tau 2N4R point mutant Thr217Ala (human, UniProt P10636 1-758, in vitro phosphorylated with rat brain kinase extract; sites not determined); test: immunoblot of in vitro phosphorylated point mutants
phosphorylated tau 2N4R point mutant Thr217Ala, sequence (P10636 other isoform, or with tags, fused parts or gaps T217A T217A limits assumed): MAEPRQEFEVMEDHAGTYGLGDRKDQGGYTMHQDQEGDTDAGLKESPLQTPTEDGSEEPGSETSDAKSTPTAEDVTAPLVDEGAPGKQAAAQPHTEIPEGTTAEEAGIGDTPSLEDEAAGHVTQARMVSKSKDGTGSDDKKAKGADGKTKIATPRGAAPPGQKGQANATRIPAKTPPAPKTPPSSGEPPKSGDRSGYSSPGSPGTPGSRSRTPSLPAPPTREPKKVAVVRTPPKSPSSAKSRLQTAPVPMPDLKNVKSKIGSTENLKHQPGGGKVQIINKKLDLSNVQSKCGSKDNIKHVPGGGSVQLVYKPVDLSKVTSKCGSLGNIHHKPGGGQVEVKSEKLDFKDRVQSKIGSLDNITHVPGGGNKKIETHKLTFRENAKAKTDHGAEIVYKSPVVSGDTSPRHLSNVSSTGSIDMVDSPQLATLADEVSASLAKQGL

[12] = target: phosphorylated tau 221-441 (human, UniProt P10636 538-758, in vitro phosphorylated with rat brain kinase extract; sites not determined); test: immunoblot of in vitro phosphorylated deletion mutants
phosphorylated tau 221-441, sequence (P10636 538-758 I625L): as the sequence (P10636 538-758 I625L) above

[13] = target: B1; test: competition ELISA, coated tau 1-242, peptide in solution with purified DC2E2

binding result [1]: no binding
Binder: SR[pT]PSLP[pT]P (Synthetic peptide (EZBiolabs)) [peptide tau 210-218/pT212/pT217]

Binder: B1
binding result [2]: binds
binding result [3]: binds
binding result [4]: binds
binding result (tau 1-242): binds
binding result [5]: binds
binding result [6]: binds
binding result [7]: binds
binding result [8]: binds
binding result (tau 31-441): binds
binding result (tau 99-441): binds
binding result (tau 1-226): binds
binding result (tau151-391): binds
binding result (tau 127-441): binds
binding result [9]: binds
binding result (tau 1-136): no binding
binding result (tau 221-441): no binding
binding result (tau 2N4R(A134-168)): no binding

binding result [10]: no binding
Binder: TPPSSGEPPKSGDRSGYSSPGSPGTPGSRS (Synthetic peptide (EZBiolabs)) [peptide tau 181-210]

binding result [1]: no binding
Binder: SR[pT]PSLP[pT]PPT (Synthetic peptide (EZBiolabs)) [peptide tau 210-220/pT212/pT217]

Binder: B2
binding result [11]: no binding
binding result [12]: no binding

binding result [1]: no binding
Binder: SR[pT]PSLP[pT]PP (Synthetic peptide (EZBiolabs)) [peptide tau 210-219/pT212/pT217]

binding result [13]: binds
Binder: GQKGQANATRIPAKTPPAPKTPPSSGEPPK (Synthetic peptide (EZBiolabs)) [peptide tau 161-190]

binding result [10]: no binding
Binder: KAKGADGKTKIATPRGAAPPGQKGQANATR (Synthetic peptide (EZBiolabs)) [peptide tau 141-170]

binding result [10]: no binding
Binder: IPAKTPPAPKTPPSSGEPPKSGDRSGYSSP (Synthetic peptide (EZBiolabs)) [peptide tau 171-200]
